Data from patent US20240425589A1 (Chugai, published 2024).
Numbering of substitutions follows the chain as printed.

Legend:
hCLDN3/BaF3 = target: T1, hCLDN3/BaF3; test: flow cytometry on hCLDN3/BaF3 cells, detection with Alexa Fluor 488 anti-human IgG
T1 construct: also called human CLDN3 on Ba/F3 cells
T1 membrane protein: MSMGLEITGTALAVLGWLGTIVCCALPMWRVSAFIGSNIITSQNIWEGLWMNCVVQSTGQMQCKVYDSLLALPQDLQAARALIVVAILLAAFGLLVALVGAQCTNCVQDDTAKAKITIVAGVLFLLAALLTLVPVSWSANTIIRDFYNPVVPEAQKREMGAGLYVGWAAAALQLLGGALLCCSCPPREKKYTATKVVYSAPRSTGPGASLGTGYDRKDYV

hCLDN4/BaF3 = target: T2, hCLDN4/BaF3; test: flow cytometry on hCLDN4/BaF3 cells, detection with Alexa Fluor 488 anti-human IgG
T2 construct: also called human CLDN4 on Ba/F3 cells
T2 membrane protein: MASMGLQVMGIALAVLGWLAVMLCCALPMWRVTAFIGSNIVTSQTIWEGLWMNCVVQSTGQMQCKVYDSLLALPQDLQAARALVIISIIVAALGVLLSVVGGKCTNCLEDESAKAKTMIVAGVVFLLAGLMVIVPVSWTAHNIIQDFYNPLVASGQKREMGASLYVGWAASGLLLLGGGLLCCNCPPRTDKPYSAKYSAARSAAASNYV

hCLDN9/BaF3 = target: T3, hCLDN9/BaF3; test: flow cytometry on hCLDN9/BaF3 cells, detection with Alexa Fluor 488 anti-human IgG
T3 construct: also called human CLDN9 on Ba/F3 cells
T3 membrane protein: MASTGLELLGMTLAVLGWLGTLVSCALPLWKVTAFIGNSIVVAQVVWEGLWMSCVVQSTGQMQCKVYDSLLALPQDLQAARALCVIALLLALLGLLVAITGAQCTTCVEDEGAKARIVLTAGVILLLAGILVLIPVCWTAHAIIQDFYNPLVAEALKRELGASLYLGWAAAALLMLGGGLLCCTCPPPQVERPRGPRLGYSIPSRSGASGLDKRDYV

[1] = target: T4, human CLDN6 on Ba/F3 cells (hCLDN6/BaF) (human, UniProt P56747 1-220); test: flow cytometry on hCLDN6/BaF3 cells, detection with Alexa Fluor 488 anti-human IgG
T4 construct: also called human Claudin-6
T4 chain: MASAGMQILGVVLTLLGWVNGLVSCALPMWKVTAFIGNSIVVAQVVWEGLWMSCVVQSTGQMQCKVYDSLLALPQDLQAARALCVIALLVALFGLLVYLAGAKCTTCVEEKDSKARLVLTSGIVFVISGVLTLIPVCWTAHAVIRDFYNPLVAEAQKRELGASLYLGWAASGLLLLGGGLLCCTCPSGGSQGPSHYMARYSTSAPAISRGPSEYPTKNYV

[2] = target: cyno CLDN6 VLP (virus-like particle) (cynomolgus monkey)
[3] = target: T5, human CLDN6 VLP (virus-like particle) (human, UniProt P56747 1-220); test: SPR Biacore T200, 25 C, pH 7.4, CLDN6 VLP captured by anti-human CD81 on C1 chip, antibody injected at 50 and 200 nM, 1:1 fit
T5 chain: T4 chain

recombinant cyno CD137 = target: T6, recombinant cyno CD137 (cynomolgus monkey, UniProt A9YYE7 24-186); test: SPR Biacore 8K, 37 C, pH 7.4, antibody captured by anti-human Fc on CM4 chip, CD137 injected at 500 and 2000 nM, 1:1 fit
T6 sequence: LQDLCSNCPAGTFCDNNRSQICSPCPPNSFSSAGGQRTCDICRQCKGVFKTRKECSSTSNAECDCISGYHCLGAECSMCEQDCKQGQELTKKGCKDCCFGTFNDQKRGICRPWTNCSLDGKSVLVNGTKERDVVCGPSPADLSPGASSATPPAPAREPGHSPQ

[4] = target: T7, Human CD137 extracellular domain (ECD) with hexahistidine (His-tag) and biotin acceptor peptide (BAP) (human); test: as above
T7 construct: Expressed in FreeStyle293F cells; also called recombinant human CD137; human CD137 ECD; not shown: C-terminal hexahistidine tag and biotin acceptor peptide (BAP)

recombinant cyno CD3eg = target: T8, recombinant cyno CD3eg (cynomolgus monkey); test: SPR Biacore 8K, 25 C, pH 7.4, antibody captured by anti-human Fc on CM4 chip, CD3eg injected at 500 and 2000 nM, 1:1 fit
T8 construct: Construct not described; also called cyno CD3eg (gamma and epsilon subunits of CD3)

human CD3eg linker = target: T9, human CD3eg linker (human); test: as above
T9 construct: Single-chain construct: CD3 gamma and epsilon subunits joined by a 29-mer linker, Flag-tag at the C-terminal end of the gamma subunit; also called recombinant human CD3; gamma and epsilon subunits of the human CD3 complex linked by a 29-mer linker, Flag-tag
T9 chain: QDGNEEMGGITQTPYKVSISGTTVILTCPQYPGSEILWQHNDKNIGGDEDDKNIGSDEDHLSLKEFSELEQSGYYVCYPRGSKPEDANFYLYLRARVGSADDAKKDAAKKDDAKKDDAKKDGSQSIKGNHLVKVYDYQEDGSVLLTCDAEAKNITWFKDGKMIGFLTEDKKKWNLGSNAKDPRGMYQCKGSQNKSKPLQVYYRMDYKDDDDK

T7 sequence (chain, as listed by the source): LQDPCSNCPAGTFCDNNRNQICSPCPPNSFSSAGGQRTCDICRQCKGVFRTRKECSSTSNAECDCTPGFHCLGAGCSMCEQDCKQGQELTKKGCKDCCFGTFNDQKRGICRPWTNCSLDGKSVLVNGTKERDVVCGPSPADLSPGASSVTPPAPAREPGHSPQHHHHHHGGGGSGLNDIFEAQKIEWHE
T8 sequence (Q95LI5 22-117, chain 1 of 2): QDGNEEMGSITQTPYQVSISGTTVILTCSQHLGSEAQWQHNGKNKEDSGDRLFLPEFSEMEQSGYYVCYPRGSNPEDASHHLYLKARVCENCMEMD
T8 sequence (Q95LI7 23-113, chain 2 of 2, further chain): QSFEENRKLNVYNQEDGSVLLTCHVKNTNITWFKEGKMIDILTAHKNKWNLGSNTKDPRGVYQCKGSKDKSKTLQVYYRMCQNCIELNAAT

B1: CS2961 (bispecific antibody, V domains shown)
VH 1: QVQLVESGGGVVQPGGSLRLSCAASGFTFSSYTMSWVREAPGQGLEWMGTISSGGGRTYYPDSVKGRFTISRDNSKNTLYLQMNSLRDEDTAVYYCARGDYRYDGFAYWGEGTLVTVSS
VL 1: DIQMTQSPSSLSASVGDRVTITCRASYNIDSYLAWYQKKPGKAPELLIYYSTLLVDGVPDRFSGSRSGTDFTLTISSLQPEDFATYYCQHYYSIPYTFGQGTKVEIE
VH 2: QVQLVESGGGVVQPGGSLRLSCAASGFTFSNAWMHWVRKAPGKGLEWVAQIKDKSQNYATYVAESVKGRFTISRADSKNSIYLQMNSLKTEDTAVYYCRYVHYAAGYGVDIWGQGTTVTVSS
VL 2: DIVMTQSPLSLPVTPGEPASISCRSSQPLVHSNRNTYLHWYQEKPGQAPRLLIYKVSNRFSGVPDRFSGSGSGTDFTLKISRVEAEDVGVYYCGQGTQVPYTFGQGTKLEIK
notes: detected with anti-human IgG; also called anti-CLDN6/CD3 bispecific antibody (CS2961)
- binding result (hCLDN3/BaF3): no binding (tested: 15 micro g/ml)
- binding result (hCLDN4/BaF3): no binding (tested: 15 micro g/ml)
- binding result (hCLDN9/BaF3): no binding (tested: 15 micro g/ml)

B2: 6PHU3/TR01 (bispecific antibody, V domains shown)
VH 1: EVQLQQSGPELVKPGASMKISCKASGYSFTGYTMNWVKQSHGKNLEWIGLINPYNGGTIYNQKFKGKATLTVDKSSSTAYMELLSLTSEDSAVYYCARDYGFVLDYWGQGTTLTVSS
VL 1: DIVLTQSPSIMSVSPGEKVTITCSASSSVSYMHWFQQKPGTSPKLCIYSTSNLASGVPARFSGRGSGTSYSLTISRVAAEDAATYYCQQRSNYPPWTFGGGTKLEIK
VH 2: B1 VH 2 with K39Q
VL 2: B1 VL 2 with E43Q
notes: also called anti-CLDN6/CD3 bispecific antibody (6PHU3/TR01)
- binding result (hCLDN3/BaF3): no binding (tested: 15 micro g/ml)
- binding result (hCLDN4/BaF3): no binding (tested: 15 micro g/ml)

B3: KLH/TR01 (bispecific antibody, V domains shown)
VH 1: QVQLQQSGPQLVRPGASVKISCKASGYSFTSYWMHWVNQRPGQGLEWIGMIDPSYSETRLNQKFKDKATLTVDKSSSTAYMQLSSPTSEDSAVYYCALYGNYFDYWGQGTTLTVSS
VL 1: DIQMTQSSSSFSVSLGDRVTITCKASEDIYNRLAWYQQKPGNAPRLLISGATSLETGVPSRFSGSGSGKDYTLSITSLQTEDVATYYCQQYWSTPYTFGGGTKLEVK
VH 2: B1 VH 2 with K39Q
VL 2: B1 VL 2 with E43Q
notes: also called negative control
- binding result [1]: no binding (tested: 15 micro g/ml)
- binding result (hCLDN9/BaF3): no binding (tested: 15 micro g/ml)

B4: PPU4135 (bispecific antibody, human IgG1, kappa, L234A L235A, N297A)
heavy 1: QVQLVESGGGVVQPGGSLRLSCAASGFTFSSYTMSWVRQAPGQGLEWMGTISSGGGRTYYPDSVKGRFTISRDNSKNTLYLQMNSLRDEDTAVYYCARGDYRYDGFAYWGEGTLVTVSSASTKGPSVFPLAPSSKSTSGGTAALGCLVEDYFPEPVTVSWNSGALTSGVHTFPAVLESSGLYSLSSVVTVPSSSLGTQTYICNVNHKPSNTKVDKRVEPKSCDKTHTCPPCPAPEAAGGPSVFLFPPKPKDTLMISRTPEVTCVVVDVSHEDPEVKFNWYVDGVEVHNAKTKPREEQYASTYRVVSVLTVLHQDWLNGKEYKCKVSNKALPAPIEKTISKAKGQPREPQVYTLPPSREEMTKNQVSLTCLVKGFYPSDIAVEWESNGQPENNYKTTPPVLDSDGSFFLYSKLTVDKSRWQQGNVFSCSVMHEALHNHYTQESLSLSP
light 1: DIQMTQSPSSLSASVGDRVTITCRASYNIDSYLAWYQQKPGKAPELLIYYSTLLVDGVPDRFSGSRSGTDFTLTISSLQPEDFATYYCQHYYSIPYTFGQGTKVEIERTVAAPSVFIFPPSDEQLKSGTAKVVCLLNNFYPREAKVQWKVDNALQSGNSKESVTEQDSKDSTYSLSSTLTLSKADYEKHKVYACEVTHQGLSSPVTKSFNRGEC
heavy 2: QVQLVESGGGLVQPGRSLRLSCAASGFKFSNVWFHWVRQAPGKGLEWVAQIKDYYNAYAAYYAPSVKGRFTISRDDSKNSIYLQMNSLKTEDTAVYYCHYVHYASASTLLPAEGVDAWGQGTTVTVSSASTKGPSVFPLAPSSKSTSGGTAALGCLVKDYFPEPVTVSWNSGALTSGVHTFPAVLKSSGLYSLSSVVTVPSSSLGTQTYICNVNHKPSNTKVDKRVEPKSCDKTHTCPPCPAPEAAGGPSVFLFPPKPKDTLMISRTPEVTCVVVDVSHEDPEVKFNWYVDGVEVHNAKTKPREEQYASTYRVVSVLTVLHQDWLNGKEYKCKVSNKALPAPIEKTISKAKGQPREPQVYTLPPSRKEMTKNQVSLTCLVKGFYPSDIAVEWESNGQPENNYKTTPPVLDSDGSFFLYSKLTVDKSRWQQGNVFSCSVMHEALHNHYTQKSLSLSP
light 2: DIVMTQSPLSLPVTPGEPASISCQPSQEVVHMNRNTYLHWYQQKPGQAPRLLIYKVSNRFPGVPDRFSGSGSGTDFTLKISRVEAEDVGVYYCAQGTSHPFTFGQGTKLEIKRTVAAPSVFIFPPSDEQLKSGTAEVVCLLNNFYPREAKVQWKVDNALQSGNSEESVTEQDSKDSTYSLSSTLTLSKADYEKHKVYACEVTHQGLSSPVTKSFNRGEC
notes: also called CS4135; Ab03
- Kd [2]: 3.77 nM
- koff [2]: 0.000821 s⁻¹
- kon [2]: 218000 M⁻¹ s⁻¹
- Kd [3]: 3.65 nM
- koff [3]: 0.000794 s⁻¹
- kon [3]: 217000 M⁻¹ s⁻¹
- Kd (recombinant cyno CD137): 174 nM
- koff (recombinant cyno CD137): 0.00146 s⁻¹
- kon (recombinant cyno CD137): 8350 M⁻¹ s⁻¹
- Kd [4]: 46.8 nM
- koff [4]: 0.000591 s⁻¹
- kon [4]: 12600 M⁻¹ s⁻¹
- Kd (recombinant cyno CD3eg): 329 nM
- koff (recombinant cyno CD3eg): 0.0332 s⁻¹
- kon (recombinant cyno CD3eg): 101000 M⁻¹ s⁻¹
- Kd (human CD3eg linker): 341 nM
- koff (human CD3eg linker): 0.0266 s⁻¹
- kon (human CD3eg linker): 78000 M⁻¹ s⁻¹
